Measurements: paper PMC10010549
Numbering of substitutions follows the chain as printed.

What was measured:
Assay in all cases: EMSA
Details in all cases: pH 7.5, 30 min at 37 C
[1] = biological target: T1, GntR-S41E S41E (Streptococcus suis serotype 2 ZY05719) (UniProt A0A0H3MTN4)
T1 sequence: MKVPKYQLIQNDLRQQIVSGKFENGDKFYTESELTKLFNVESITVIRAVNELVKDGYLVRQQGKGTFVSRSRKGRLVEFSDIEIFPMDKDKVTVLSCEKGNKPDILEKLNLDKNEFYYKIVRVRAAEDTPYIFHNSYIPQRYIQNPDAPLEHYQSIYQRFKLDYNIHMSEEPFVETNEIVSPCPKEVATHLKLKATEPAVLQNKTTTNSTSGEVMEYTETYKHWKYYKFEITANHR

[2] = biological target: T2, GntR (Streptococcus suis serotype 2 ZY05719) (UniProt A0A0H3MTN4)
T2 sequence: T1 sequence with E41S

[3] = biological target: T3, GntR-S41A S41A (Streptococcus suis serotype 2 ZY05719) (UniProt A0A0H3MTN4)
T3 sequence: T1 sequence with E41A

GCCATAATGTAAAATCTCACTTTCGAAAATATATTTTTTTACGAACTATATTATACAATATAAATGTTACCGATTTCAAAAAATATGCTCAGAATATCACATTTTTTTCAAAAAGTTTTTGAAATGCTATTTTCTTTAAACAATGTAAAGATATATAAAAGCAAAAACCTAGATTTCTCTAGGTTTCTCTTAACGTACTTGTTCAAAACGC (double strand) [nox promoter]
binding [1]: no binding
binding [2]: binds
binding [3]: binds
